Experimental data from patent US8663616B2, “Enzymatic peracid generation for use in oral care products” (E I du Pont de Nemours and Company, priority 2010, dated 2014).

Key:
[1] = T. maritima C277S/C277T constructs, peracetic acid when bound to bovine enamel (Example 11); format: biochemical; settings: bovine enamel exposed to 10 μM enzyme, 4 washes; 100 mM triacetin, 100 mM H2O2, 30 min, 37° C.; no enzyme 570
Experimental: (§1) The detection of peracetic acid followed the method described in Pinkernell et. al. (Analyst, 1997, 122, 567) using colorimetric detection of 2,2′-azino-bis(3-ethylbenzothiazoline(-6-sulfonate (ABTS) oxidation by peracetic acid. Following the formation of peracetic acid with the addition of triacetin and hydrogen peroxide, 90 μL of solution was added to 10 μL of 0.1 M H3PO4 in a well plate. 50 μL of 1 M acetic acid, 50 μL of 0.5 g/L ABTS and 50 μL of 0.002 g/L of KI was added. The solution was allowed to develop for 5 min. The absorbance of the solution was measured at 405 nm using a microplate reader. The peracetic acid concentration was calculated based on a standard curve developed simultaneously using peracetic acid reagent solution.
The perhydrolase enzymes were also assessed for binding to bovine enamel substrates. Enamel substrates were prepared as described in Example 2 and 3. Each enamel block was hydrated in water for overnight at room temperature (˜22° C.). The enamel blocks were then equilibrated with 10 mM potassium phosphate buffer, pH7.2, for 10 min. The enamel substrates were rinsed 3 times the buffer. The enamel wells were filled with 500 μL of 10 μM enzyme solutions which was prepared by diluting in 10 mM phosphate buffer. The samples were incubated for 30 min with slow shaking at 37° C. The non-binding enzyme was removed by washing 4 times with phosphate buffer. Then, each enamel block was embedded inside a putty filled 24-well plate, with only the enamel top surface exposed. The perhydrolase activity from enamel bound enzyme was measured as described in Example 8. 100 μL reaction mixtures (100 mM phosphate buffer, pH7.2 and 100 mM H2O2 and 100 mM triacetin) was added on top of the enamel and incubated for 30 min at 37° C. A 90 μL aliquot was removed for detection via ABTS oxidation as noted in Example 8. Each sample data point represents an average of 3 independent enamel blocks.

[2] = T. maritima C277S/C277T constructs, peracetic acid in solution (Example 11); format: biochemical; settings: 0.5 μM enzyme, 100 mM triacetin, 100 mM H2O2, pH 7.2, 10 min, 37° C.; no enzyme 114
Experimental: as §1
Perhydrolase enzymes listed in Table 5 were assessed for enzyme activity in solution as described in Example 7. The enzyme activity in solution was measured by making a 500 μl solution of 0.5 μM of each enzyme in 100 mM triacetin, 100 mM H2O2 and 10 mM phosphate buffer, pH 7.2. The solution was incubated for 10 min, at 37° C. After the reaction was stopped by mixing an aliquot with H3PO4, a 10 μL aliquot was removed for proper dilution, and then detected via ABTS oxidation as described in Example 7.

[3] = Retention of perhydrolase on hydroxyapatite (SDS-PAGE band strength); format: binding; settings: relative to enzyme input = 1
Experimental: Perhydrolase enzymes listed in Table 6 were assessed for binding to hydroxyapatite. A dispersion of hydroxyapatite nanoparticles (Aldrich 677418) was made at 0.5% solids in 10 mM phosphate buffer at pH 7.2. Enzyme stock solution was added to the hydroxyapatite dispersion to a final concentration of 10 μM and incubated for 30 min in a microcentrifuge tube with gentle agitation. Each sample was centrifuged for 5 min at 10000 rpm. The supernatant was removed and additional buffer was added. The particles were resuspended and transferred to a new tube. The process was repeated two additional times. Samples of the original input of enzyme, the supernatant removed from the particles with each wash step and the final particles were prepared for SDS-PAGE analysis by combining 60 μL of sample, 20 μL of LDS buffer and 8 μL of reducing agent (Nu-PAGE). Samples were heated at 85° C. for 10 min. 25 μL of each sample was loaded on a 4-12% BisTris gel (Invitrogen) and run at 115 volts for 1.5 h. The gel was removed and stained with a 1:1 dilution of Simply Blue stain (Invitrogen) overnight and destained for 4 h in deionized water. The gel was analyzed and detection of enzyme in each fraction was estimated based on the presence of a band. The results of the analysis are provided in Table 7 with an indication of the relative strength of each band in the gel compared to the enzyme input (input=1) to determine the strength of binding between the hydroxyapatite surface and each enzyme.

[4] = Peracetic acid generation from hydroxyapatite bound CE-7 perhydrolase fusions (Example 8); format: biochemical; settings: hydroxyapatite particles exposed to 10 μM enzyme, washed; 100 mM triacetin, 100 mM H2O2, 30 min, 37° C.; no enzyme 30-118.8
Experimental: as §1
To assess binding of these constructs to hydroxyapatite, 33 mg of hydroxyapatite particles (Macro-prep Ceramic Hydroxyapatite TYPE I, 80 μm size BioRad, Hercules, Calif.), were washed with 10 mM phosphate buffer at pH 7.2. After removing the supernatant, enzyme stock solution was added to the hydroxyapatite dispersion to a final concentration of 10 μM and incubated for 30 min in a microcentrifuge tube with gentle agitation. Each sample was centrifuged for 1 min at 10000 rpm. The supernatant was removed and additional buffer was added. The particles were resuspended and transferred to a new tube. The process was repeated two additional times. The hydroxyapatite bound enzyme activity was measured by adding a 500 μl solution containing 100 mM triacetin, 100 mM H2O2 in 100 mM phosphate buffer, pH 7.2. The solution was incubated for 30 min, at 37° C. An aliquot was removed and mixed with H3PO4 and properly diluted for detection via ABTS oxidation as described in Example 7. The experiments were performed at different day with no enzyme as control for each experiment.

B1: EZ-18: C277T-link1-(GK)5-H6, SEQ ID NO: 442 (protein)
chain: MAFFDLPLEELKKYRPERYEEKDFDEFWEETLAESEKFPLDPVFERMESHLKTVEAYDVTFSGYRGQRIKGWLLVPKLEEEKLPCVVQYIGYNGGRGFPHDWLFWPSMGYICFVMDTRGQGSGWLKGDTPDYPEGPVDPQYPGFMTRGILDPRTYYYRRVFTDAVRAVEAAASFPQVDQERIVIAGGSQGGGIALAVSALSKKAKALLCDVPFLCHFRRAVQLVDTHPYAEITNFLKTHRDKEEIVFRTLSYFDGVNFAARAKIPALFSVGLMDNITPPSTVFAAYNYYAGPKEIRIYPYNNHEGGGSFQAVEQVKFLKKLFEKGGPGSGGAGSPGSAGGPGSGKGKGKGKGKHHHHHH
Peracetic acid (ppm) On Enamel [1]: 1158 ppm
Peracetic acid (ppm) In Solution [2]: 5537 ppm

B2: EZ-16: C277T-link1-HC263-H6, SEQ ID NO: 440 (protein)
chain: MAFFDLPLEELKKYRPERYEEKDFDEFWEETLAESEKFPLDPVFERMESHLKTVEAYDVTFSGYRGQRIKGWLLVPKLEEEKLPCVVQYIGYNGGRGFPHDWLFWPSMGYICFVMDTRGQGSGWLKGDTPDYPEGPVDPQYPGFMTRGILDPRTYYYRRVFTDAVRAVEAAASFPQVDQERIVIAGGSQGGGIALAVSALSKKAKALLCDVPFLCHFRRAVQLVDTHPYAEITNFLKTHRDKEEIVFRTLSYFDGVNFAARAKIPALFSVGLMDNITPPSTVFAAYNYYAGPKEIRIYPYNNHEGGGSFQAVEQVKFLKKLFEKGGPGSGGAGSPGSAGGPGSPSAQSQLPDKHSGLHERAPQRYGPEPEPEPEPIPEPPKEAPVVIEKPKPKPKPKPKPPAHDHKNQKETHQRHAAGSGGGGSPHHHHHH
Peracetic acid (ppm) On Enamel [1]: 1832 ppm
Peracetic acid (ppm) In Solution [2]: 6496 ppm

B3: EZ-14: C277T-link1-DenP308-H6, SEQ ID NO: 438 (protein)
chain: MAFFDLPLEELKKYRPERYEEKDFDEFWEETLAESEKFPLDPVFERMESHLKTVEAYDVTFSGYRGQRIKGWLLVPKLEEEKLPCVVQYIGYNGGRGFPHDWLFWPSMGYICFVMDTRGQGSGWLKGDTPDYPEGPVDPQYPGFMTRGILDPRTYYYRRVFTDAVRAVEAAASFPQVDQERIVIAGGSQGGGIALAVSALSKKAKALLCDVPFLCHFRRAVQLVDTHPYAEITNFLKTHRDKEEIVFRTLSYFDGVNFAARAKIPALFSVGLMDNITPPSTVFAAYNYYAGPKEIRIYPYNNHEGGGSFQAVEQVKFLKKLFEKGGPGSGGAGSPGSAGGPGSTKPPRTPTANTSRPHHNFGSGGGGSPHHHHHH
Peracetic acid (ppm) On Enamel [1]: 1418 ppm
Peracetic acid (ppm) In Solution [2]: 4689 ppm

B4: EZ-17: C277T-link2-H6, SEQ ID NO: 441 (protein)
chain: MAFFDLPLEELKKYRPERYEEKDFDEFWEETLAESEKFPLDPVFERMESHLKTVEAYDVTFSGYRGQRIKGWLLVPKLEEEKLPCVVQYIGYNGGRGFPHDWLFWPSMGYICFVMDTRGQGSGWLKGDTPDYPEGPVDPQYPGFMTRGILDPRTYYYRRVFTDAVRAVEAAASFPQVDQERIVIAGGSQGGGIALAVSALSKKAKALLCDVPFLCHFRRAVQLVDTHPYAEITNFLKTHRDKEEIVFRTLSYFDGVNFAARAKIPALFSVGLMDNITPPSTVFAAYNYYAGPKEIRIYPYNNHEGGGSFQAVEQVKFLKKLFEKGGSHHHHHH
Peracetic acid (ppm) On Enamel [1]: 616 ppm
Peracetic acid (ppm) In Solution [2]: 5360 ppm

B5: EZ-12: T. maritima C277T variant, untargeted, SEQ ID NO: 437 (protein)
chain: MAFFDLPLEELKKYRPERYEEKDFDEFWEETLAESEKFPLDPVFERMESHLKTVEAYDVTFSGYRGQRIKGWLLVPKLEEEKLPCVVQYIGYNGGRGFPHDWLFWPSMGYICFVMDTRGQGSGWLKGDTPDYPEGPVDPQYPGFMTRGILDPRTYYYRRVFTDAVRAVEAAASFPQVDQERIVIAGGSQGGGIALAVSALSKKAKALLCDVPFLCHFRRAVQLVDTHPYAEITNFLKTHRDKEEIVFRTLSYFDGVNFAARAKIPALFSVGLMDNITPPSTVFAAYNYYAGPKEIRIYPYNNHEGGGSFQAVEQVKFLKKLFEKG
Peracetic acid (ppm) On Enamel [1]: 612 ppm
Peracetic acid (ppm) In Solution [2]: 4918 ppm

B6: EZ-9: C277S-link1-H6, SEQ ID NO: 430 (protein)
chain: MAFFDLPLEELKKYRPERYEEKDFDEFWEETLAESEKFPLDPVFERMESHLKTVEAYDVTFSGYRGQRIKGWLLVPKLEEEKLPCVVQYIGYNGGRGFPHDWLFWPSMGYICFVMDTRGQGSGWLKGDTPDYPEGPVDPQYPGFMTRGILDPRTYYYRRVFTDAVRAVEAAASFPQVDQERIVIAGGSQGGGIALAVSALSKKAKALLCDVPFLCHFRRAVQLVDTHPYAEITNFLKTHRDKEEIVFRTLSYFDGVNFAARAKIPALFSVGLMDNISPPSTVFAAYNYYAGPKEIRIYPYNNHEGGGSFQAVEQVKFLKKLFEKGGPGSGGAGSPGSAGGPGSHHHHHH
Unbound (relative band strength) ([3]; 10 μM enzyme, 0.5% hydroxyapatite, pH 7.2): 0.9
HAP Particles (relative band strength) ([3]; enzyme retained on particles after washes): 0.05
Wash1 (relative band strength) [3]: 0.01
Wash2 (relative band strength) [3]: 0.00
Peracetic acid (ppm) [4]: 1885.1 ppm
Peracetic acid (ppm) On Enamel [1]: 612 ppm
Peracetic acid (ppm) In Solution [2]: 5499 ppm

B7: EZ-15: C277T-link1-H6, SEQ ID NO: 439 (protein)
chain: MAFFDLPLEELKKYRPERYEEKDFDEFWEETLAESEKFPLDPVFERMESHLKTVEAYDVTFSGYRGQRIKGWLLVPKLEEEKLPCVVQYIGYNGGRGFPHDWLFWPSMGYICFVMDTRGQGSGWLKGDTPDYPEGPVDPQYPGFMTRGILDPRTYYYRRVFTDAVRAVEAAASFPQVDQERIVIAGGSQGGGIALAVSALSKKAKALLCDVPFLCHFRRAVQLVDTHPYAEITNFLKTHRDKEEIVFRTLSYFDGVNFAARAKIPALFSVGLMDNITPPSTVFAAYNYYAGPKEIRIYPYNNHEGGGSFQAVEQVKFLKKLFEKGGPGSGGAGSPGSAGGPGSHHHHHH
Peracetic acid (ppm) On Enamel [1]: 631 ppm
Peracetic acid (ppm) In Solution [2]: 5921 ppm
